US20240279315A1 (priority 2023, published 2024)
Like-named read-outs stand apart in the source and are kept apart here.

What was measured:
[1] = target: hemagglutinin (HA) of influenza A/Switzerland/9715293/2013 H3N2 (influenza A virus A/Switzerland/9715293/2013 (H3N2)); experiment: cell-based or functional assay
[2] = target: hemagglutinin (HA) of influenza B/Colorado/06/2017 B-Vic (influenza B virus B/Colorado/06/2017); experiment: cell-based or functional assay
[3] = target: hemagglutinin (HA) of influenza B/Maryland/15/2016 B-Vic (influenza B virus B/Maryland/15/2016); experiment: cell-based or functional assay
[4] = target: hemagglutinin (HA) of influenza A/Hong Kong/4801/2014 H3N2 (influenza A virus A/Hong Kong/4801/2014 (H3N2)); experiment: cell-based or functional assay
[5] = target: hemagglutinin (HA) of influenza B/Phuket/3073/2013 B-Yam (influenza B virus B/Phuket/3073/2013); experiment: cell-based or functional assay
[6] = target: hemagglutinin (HA) of influenza A/Singapore/INFIMH-16-0019/2016 H3N2 (influenza A virus A/Singapore/INFIMH-16-0019/2016 (H3N2)); experiment: cell-based or functional assay
[7] = target: hemagglutinin (HA) of influenza B/Brisbane/60/2008 B-Vic (influenza B virus B/Brisbane/60/2008); experiment: cell-based or functional assay
[8] = target: hemagglutinin (HA) of influenza A/Brisbane/02/2018 H1N1 (influenza A virus A/Brisbane/02/2018 (H1N1)); experiment: cell-based or functional assay
[9] = target: hemagglutinin (HA) of influenza B/California/12/2015 B-Yam (influenza B virus B/California/12/2015); experiment: cell-based or functional assay
[10] = target: hemagglutinin (HA) of influenza A/Victoria/2570/2019 H1N1 (influenza A virus A/Victoria/2570/2019 (H1N1)); experiment: cell-based or functional assay
[11] = target: hemagglutinin (HA) of influenza B/Washington/02/2019 B-Vic (influenza B virus B/Washington/02/2019); experiment: cell-based or functional assay
[12] = target: hemagglutinin (HA) of influenza A/Kansas/14/2017 H3N2 (influenza A virus A/Kansas/14/2017 (H3N2)); experiment: cell-based or functional assay
[13] = target: hemagglutinin (HA) of influenza A/Cambodia/e0826360/2020 H3N2 (influenza A virus A/Cambodia/e0826360/2020 (H3N2)); experiment: cell-based or functional assay
[14] = target: hemagglutinin (HA) of influenza A/Brisbane/02/2018 H1N1 (influenza A virus A/Brisbane/02/2018 (H1N1)); experiment: cell-based or functional assay; remark: listed apart in the source
[15] = target: hemagglutinin (HA) of influenza A/Wisconsin/588/2019 (influenza A virus A/Wisconsin/588/2019); experiment: cell-based or functional assay
[16] = target: hemagglutinin (HA) of influenza A/Sydney/5/2021 (influenza A virus A/Sydney/5/2021); experiment: cell-based or functional assay
[17] = target: hemagglutinin (HA) of influenza B/Colorado/06/2017 B-Vic (influenza B virus B/Colorado/06/2017); experiment: cell-based or functional assay; remark: listed apart in the source
[18] = target: hemagglutinin (HA) of influenza A/Darwin/6/2021 (influenza A virus A/Darwin/6/2021); experiment: cell-based or functional assay
[19] = target: hemagglutinin (HA) of influenza B/Austria/1359417/2021 (influenza B virus B/Austria/1359417/2021); experiment: cell-based or functional assay
[20] = target: hemagglutinin (HA) of influenza B/Phuket/3073/2013 B-Yam (influenza B virus B/Phuket/3073/2013); experiment: cell-based or functional assay; remark: listed apart in the source
[21] = target: hemagglutinin (HA) of influenza B/Washington/02/2019 B-Vic (influenza B virus B/Washington/02/2019); experiment: cell-based or functional assay; remark: listed apart in the source
[22] = target: hemagglutinin (HA) of influenza A/Kansas/14/2017 H3N2 (influenza A virus A/Kansas/14/2017 (H3N2)); experiment: cell-based or functional assay; remark: listed apart in the source
[23] = target: hemagglutinin (HA) of influenza A/Tasmania/503/2020 (H3N2) (influenza A virus A/Tasmania/503/2020 (H3N2)); experiment: cell-based or functional assay
[24] = target: hemagglutinin (HA) of influenza A/Singapore/INFIMH-16-0019/2016 H3N2 (influenza A virus A/Singapore/INFIMH-16-0019/2016 (H3N2)); experiment: cell-based or functional assay; remark: listed apart in the source
[25] = target: hemagglutinin (HA) of influenza A/Hawaii/70/2019 (influenza A virus A/Hawaii/70/2019); experiment: cell-based or functional assay
[26] = test system: influenza A/Anhui/1/2013 (H7N9) virus; parameters: species or system BALB/c mice; conditions: mouse, in vivo

Molecule	HAI titer [2] [titer]	HAI titer [3] [titer]	HAI titer [5] [titer]	HAI titer [6] [titer]	HAI titer [14] [titer]	HAI titer [15] [titer]	HAI titer [16] [titer]	HAI titer [17] [titer]	HAI titer [18] [titer]	HAI titer [19] [titer]	HAI titer [20] [titer]	HAI titer [21] [titer]	HAI titer [22] [titer]	HAI titer [23] [titer]	HAI titer [24] [titer]	HAI titer [25] [titer]	further results
SAB-176 (antibody)	512	512	512	512													HAI titer [1]: > 2048 titer; HAI titer [4]: 1024 titer; HAI titer [7]: 64 titer
SAB-176 Lot 2 (PD2001010QR) (antibody)	256	256	256	512	1280	640	320	320	113	28	160	160	40	160	320	640	HAI titer [8]: 512 titer; HAI titer ratio of SAB-176 to hIVIG [8]: 16 to 32 X; HAI titer ratio of SAB-176 to hIVIG [2]: 16 to 32 X; HAI titer of drug product [3]: 3580 titer; HAI titer ratio of SAB-176 to hIVIG [3]: 16 to 32 X; HAI titer [9]: 128 titer; HAI titer ratio of SAB-176 to hIVIG [9]: 16 to 32 X; HAI titer of drug product [5]: 3580 titer; HAI titer ratio of SAB-176 to hIVIG [5]: 32 X; HAI titer [10]: 256 titer; HAI titer ratio of SAB-176 to hIVIG [10]: 16 to 32 X; HAI titer [11]: 128 titer; HAI titer ratio of SAB-176 to hIVIG [11]: 16 to 32 X; HAI titer [12]: 64 titer; HAI titer ratio of SAB-176 to hIVIG [12]: 2 to 16 X; HAI titer of drug product [6]: 7170 titer; HAI titer ratio of SAB-176 to hIVIG [6]: 8 to 32 X; HAI titer [13]: 256 titer; HAI titer ratio of SAB-176 to hIVIG [13]: 8 to 16 X
CCOC(=O)C1=C[C@@H](OC(CC)CC)[C@H](NC(C)=O)[C@@H](N)C1 [oseltamivir]																	protection from challenge (body weight) [26]: did show protection from challenge
SAB-176 Lot 5 (PD2203294QR) (antibody)					1280	1280	1280	160	320	40	80	320	320	640	320	1810	HAI titer of drug substance [5]: 1920 titer; HAI titer of drug substance [10]: 7680 titer; HAI titer of drug substance [11]: 3840 titer; HAI titer of drug substance [13]: 3840 titer
